The target of assay [1] is human Arginase I with an engineered N-terminal Cys residue (hArgI-C), not PEGylated (human). Put plainly: SEC.
In assay [2] the target is Co-hArgI-C^PEG-20K (hArgI-C conjugated at the N-terminal Cys to 20 KDa PEG-maleimide) (human). Put plainly: SEC.

“human Arginase I with an engineered N-terminal Cys residue (hArgI-C), not PEGylated (enzyme)”: in assay [1], the percent dimeric is 10% and the percent monomeric is 90%.
In turn, “Co-hArgI-C^PEG-20K (hArgI-C conjugated at the N-terminal Cys to 20 KDa PEG-maleimide) (enzyme)” gave a stoichiometry N in assay [2] of 3.

Values taken from PMC3294146.
